In the supplement of paper PMC11136658:

Tested on: peptide library, one residue held at a place counted from the Y acceptor
Test: relative phosphorylation of the sub-library (ratio to the mean residue at this position); higher = residue favoured
Summary of the method: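 In 384-well plates, purified recombinant kinases were incubated for 90 min with 50 μM ATP containing γ-32P-ATP and biotinylated Tyr-centred peptide libraries, each mixture fixing one residue at a single position between −5 and +5. After capture on streptavidin membranes and rinsing, peptides were quantified by phosphorimaging with ImageQuant. Per-position intensities were scaled to the sum of the 18 (Ser/Thr-free library: 16) randomized residues, then multiplied by that number.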

Chain of TEK, construct: aa771-end, human (Q02763 771-1124, looked up): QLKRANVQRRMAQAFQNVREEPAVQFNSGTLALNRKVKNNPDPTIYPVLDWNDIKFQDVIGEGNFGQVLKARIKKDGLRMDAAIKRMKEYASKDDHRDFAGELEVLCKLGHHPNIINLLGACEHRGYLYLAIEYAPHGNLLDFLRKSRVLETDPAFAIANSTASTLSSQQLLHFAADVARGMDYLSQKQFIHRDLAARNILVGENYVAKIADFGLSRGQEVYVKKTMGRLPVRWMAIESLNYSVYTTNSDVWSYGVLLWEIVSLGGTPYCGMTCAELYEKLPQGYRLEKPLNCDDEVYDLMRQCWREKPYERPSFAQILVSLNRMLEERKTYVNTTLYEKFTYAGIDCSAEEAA
Chain of SRMS, construct: aa221-486, human (Q9H3Y6 221-486, looked up): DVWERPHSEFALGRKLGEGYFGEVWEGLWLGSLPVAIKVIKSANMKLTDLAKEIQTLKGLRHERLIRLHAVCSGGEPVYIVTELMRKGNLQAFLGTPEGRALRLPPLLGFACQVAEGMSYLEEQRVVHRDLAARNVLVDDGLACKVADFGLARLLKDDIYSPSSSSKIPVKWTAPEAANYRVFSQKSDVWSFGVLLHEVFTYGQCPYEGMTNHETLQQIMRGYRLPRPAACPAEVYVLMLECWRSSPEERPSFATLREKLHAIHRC

SRMS, construct: aa221-486, human (from UniProt Q9H3Y6)
relative phosphorylation
Conditions	at +1	at +2	at +3	at +4	at +5	at -1	at -2	at -3	at -4	at -5
A fixed	1.61	0.852	0.745	0.969	1.04	0.678	1.08	0.923	1.13	1.02
D fixed	1.27	1.37	0.647	1.09	1.1	0.76	1.3	1.33	1.22	1.14
E fixed	2.77	1.87	0.602	1.41	1.23	0.764	1.61	1.88	1.18	1.07
F fixed	0.567	0.976	1.42	0.922	0.996	1.49	0.718	1.05	1.1	1.01
G fixed	0.832	0.583	0.964	1.15	1.18	0.296	1.01	1.07	1.08	1.18
H fixed	0.66	0.783	0.837	1.11	0.897	1.13	0.924	0.961	0.842	0.87
I fixed	1.26	1.07	2.19	0.812	0.864	2.65	0.963	0.778	0.816	0.921
K fixed	0.273	0.451	0.291	0.736	0.714	0.317	0.605	0.62	0.767	0.91
L fixed	0.788	1.07	1.56	0.795	0.92	1.98	0.921	0.839	1.03	0.919
M fixed	1.12	1.01	1.31	1.13	1.02	1.2	0.837	1.03	0.991	0.995
N fixed	0.539	1.17	0.534	0.818	0.958	0.564	1.08	1.26	0.945	1.08
P fixed	0.16	0.742	1	1.27	1.59	0.546	1.22	0.923	1.23	1.21
Q fixed	1.2	0.857	0.847	1.05	0.891	0.591	1.05	0.819	1.12	1.01
R fixed	0.361	0.635	0.397	0.871	0.768	0.351	0.576	0.671	0.867	0.946
S fixed	1.12	1.07	0.784	0.971	1	0.5	1.12	1.04	0.882	0.971
T fixed	1.12	1.26	1.01	0.923	1	1.26	0.998	1.01	0.754	0.879
V fixed	1.35	1.07	1.6	0.884	0.896	1.83	1.13	0.792	0.849	0.903
W fixed	1.01	1.16	1.27	1.09	0.942	1.1	0.856	0.994	1.2	0.962
pThr fixed	2.26	2.43	0.579	1.07	0.972	1.2	1.19	1.02	0.958	1.03
pTyr fixed	2.12	3.06	1.02	1.47	1.07	1.38	1.44	1.51	1.27	1.21

TEK, construct: aa771-end, human (from UniProt Q02763)
relative phosphorylation
Conditions	at +1	at +2	at +3	at +4	at +5	at -1	at -2	at -3	at -4	at -5
A fixed	0.824	0.564	0.495	0.84	1.16	0.673	0.88	0.762	1.02	0.755
D fixed	0.525	0.606	0.254	0.752	0.411	0.863	0.972	0.981	0.932	0.844
E fixed	1.78	1.11	0.233	0.854	0.367	1.07	1.19	1.06	0.927	0.772
F fixed	0.935	1.43	1.97	1.16	0.471	1.19	0.833	1.21	0.976	1.18
G fixed	0.429	0.332	0.395	1.05	1.68	0.512	1.11	0.972	1.3	1.16
H fixed	1.12	0.955	1.47	1.06	0.691	1.2	1.09	1.08	0.997	1.03
I fixed	1.37	1.07	1.89	0.823	0.478	1.42	0.936	0.794	0.792	0.969
K fixed	0.577	0.6	0.665	0.986	0.996	0.594	0.83	0.828	1.26	1.26
L fixed	1.06	1.67	1.49	1.11	0.509	1.92	0.94	0.854	0.908	0.898
M fixed	1.16	1.4	1.18	1.42	0.608	1.5	0.868	0.988	0.839	0.948
N fixed	0.54	1.01	0.429	0.846	0.844	1.03	1.15	1.27	1.09	1.14
P fixed	1.31	0.606	0.505	1.43	3.89	0.878	0.913	1	1.07	0.967
Q fixed	1.15	0.913	0.581	1.31	0.866	0.891	1.25	1.01	1.16	1.03
R fixed	0.705	0.717	0.658	1.05	0.944	0.56	0.935	0.936	1.22	1.37
S fixed	0.816	0.725	0.445	0.795	1.97	0.756	1.06	1.11	0.917	0.963
T fixed	0.951	0.873	0.746	0.734	1.03	0.921	1.08	1.06	0.789	0.955
V fixed	1.89	1.03	1.81	0.871	0.498	1.22	0.926	0.941	0.787	0.852
W fixed	0.848	2.39	2.79	0.901	0.587	0.812	1.02	1.15	1.03	0.901
pThr fixed	0.806	1.6	0.252	0.346	0.313	1.22	0.849	0.769	0.71	0.686
pTyr fixed	2.39	1.81	0.341	0.473	0.276	1.97	0.786	1.34	0.874	0.643
